B1: sdCD33_9 (VHH)
VHH: QVKLEESGGGLVRAGGSLRLSCAASGGTFSTYAMAWFRQAPGKEREFVAAITWGGGSTYYEDSVKGRFTISRDNAKNTGVLQMNNLDVDDTAVYYCYAFGRSRAGDANGDYWGQGTQVTVSS
notes: sdAb from a naive llama phage library; also called 426; sdAb426
B2: sdCD33_8 (VHH)
VHH: QVQLVESGGGLVQAGGSLRLSCAASGGAFSTYTMGWFRQAPGKEREFVAAIAWTGTHTYYSDSVKGRFTISRDNDKNTVFLQMNSLKPEDTAVYYCAQASSRYRAVTDSLSENHWGPGTQVTVST
notes: sdAb from a naive llama phage library; also called 424; sdAb424

Key:
[1] = target: Biotinylated CD33 protein (UniProt P20138); assay: Octet competition on biotinylated CD33; competitor h195
[2] = target: Biotinylated CD33 protein (UniProt P20138); assay: Octet competition on biotinylated CD33; competitor 430
[3] = target: Biotinylated CD33 protein (UniProt P20138); assay: Octet competition on biotinylated CD33; competitor 420
[4] = target: T1, Mutant CD33-GFP M1 (W22A) on 293FT cells (UniProt P20138 18-364); assay: FACS, mutant CD33-GFP on 293FT cells
T1 construct: whole, on cells; not shown: GFP fused to CD33

[5] = target: T2, Mutant CD33-GFP M3 (N99A) on 293FT cells (UniProt P20138 18-364); assay: FACS, mutant CD33-GFP on 293FT cells
T2 construct: whole, on cells; not shown: GFP fused to CD33

[6] = target: T3, Mutant CD33-GFP M2 (H45E) on 293FT cells (UniProt P20138 18-364); assay: FACS, mutant CD33-GFP on 293FT cells
T3 construct: whole, on cells; not shown: GFP fused to CD33

[7] = target: Biotinylated CD33 protein (UniProt P20138); assay: Octet competition on biotinylated CD33; competitor 389
[8] = target: Biotinylated CD33 protein (UniProt P20138); assay: Octet competition on biotinylated CD33; competitor 348
[9] = target: Biotinylated CD33 protein (UniProt P20138); assay: Octet competition on biotinylated CD33; competitor 424
[10] = target: Biotinylated CD33 protein (UniProt P20138); assay: Octet competition on biotinylated CD33; competitor 416
CD33 on MOLM-13 cells = target: T4, CD33 on MOLM-13 cells (human, UniProt P20138 18-364); assay: FACS, MOLM-13 cells expressing CD33 against MOLM-13 CD33 knockout
T4 construct: whole, on cells; also called MOLM-13 cell line expressing CD33; wild-type MOLM-13 cells (CD33+)
Excerpt: A naïve llama phage library was panned and screened to identify single domain antibodies that specifically recognize CD33. A MOLM-13 cell line expressing CD33 was used as a CD33-positive cell line, and a MOLM-13 cell line harboring a knockout of CD33 was used as a CD-33 negative cell line. A purified anti-human CD33 antibody was used as a positive control. Specific binding activity of identified binders was confirmed by FACS. The heavy chain variable region sequences of the identified binders are included herein.

[11] = target: Biotinylated CD33 protein (UniProt P20138); assay: Octet competition on biotinylated CD33; competitor 413
[12] = target: Biotinylated CD33 protein (UniProt P20138); assay: Octet competition on biotinylated CD33; competitor 429
[13] = target: Mutant CD33-GFP M13 (R91E) on 293FT cells (UniProt P20138); assay: FACS, mutant CD33-GFP on 293FT cells
[14] = target: Mutant CD33-GFP M4 (R122D) on 293FT cells (UniProt P20138); assay: FACS, mutant CD33-GFP on 293FT cells
[15] = target: Mutant CD33-GFP M16 (4889AII) on 293FT cells (UniProt P20138); assay: FACS, mutant CD33-GFP on 293FT cells
[16] = target: Mutant CD33-GFP M12 (G88S) on 293FT cells (UniProt P20138); assay: FACS, mutant CD33-GFP on 293FT cells
[17] = target: Mutant CD33-GFP M10 (Y127A) on 293FT cells (UniProt P20138); assay: FACS, mutant CD33-GFP on 293FT cells
[18] = target: Mutant CD33-GFP JS23 (L23N) on 293FT cells (UniProt P20138); assay: FACS, mutant CD33-GFP on 293FT cells
[19] = target: Mutant CD33-GFP M5 (AEAD), quadruple mutant, on 293FT cells (UniProt P20138); assay: FACS, mutant CD33-GFP on 293FT cells
[20] = target: Mutant CD33-GFP N20D on 293FT cells (UniProt P20138); assay: FACS, mutant CD33-GFP on 293FT cells
[21] = target: Mutant CD33-GFP M11 (L78T) on 293FT cells (UniProt P20138); assay: FACS, mutant CD33-GFP on 293FT cells
[22] = target: Mutant CD33-GFP M14 (E170R) on 293FT cells (UniProt P20138); assay: FACS, mutant CD33-GFP on 293FT cells
[23] = target: Mutant CD33-GFP M15 (Q171A) on 293FT cells (UniProt P20138); assay: FACS, mutant CD33-GFP on 293FT cells
[24] = target: Mutant CD33-GFP M19 (348ATAI) on 293FT cells (UniProt P20138); assay: FACS, mutant CD33-GFP on 293FT cells
[25] = target: Mutant CD33-GFP JS25 (V25M) on 293FT cells (UniProt P20138); assay: FACS, mutant CD33-GFP on 293FT cells
[26] = target: Mutant CD33-GFP JS28 (S28L) on 293FT cells (UniProt P20138); assay: FACS, mutant CD33-GFP on 293FT cells
[27] = target: Mutant CD33-GFP M9 (Y49, 50A) on 293FT cells (UniProt P20138); assay: FACS, mutant CD33-GFP on 293FT cells
[28] = target: Mutant CD33-GFP M17 (F21Y) on 293FT cells (UniProt P20138); assay: FACS, mutant CD33-GFP on 293FT cells
[29] = target: Mutant CD33-GFP JS24 (Q24E) on 293FT cells (UniProt P20138); assay: FACS, mutant CD33-GFP on 293FT cells
[30] = target: Mutant CD33-GFP M18 (353AAL) on 293FT cells (UniProt P20138); assay: FACS, mutant CD33-GFP on 293FT cells
[31] = target: CD33-GFP fusion protein, wild type (WT), on 293FT cells (UniProt P20138); assay: FACS, WT CD33-GFP on 293FT cells
[32] = target: Biotinylated CD33 protein (UniProt P20138); assay: Octet competition on biotinylated CD33; competitor 353
[33] = target: T5, Mutant CD33-GFP M6 (F43N) on 293FT cells (UniProt P20138 18-364); assay: FACS, mutant CD33-GFP on 293FT cells
T5 construct: whole, on cells; not shown: GFP fused to CD33

[34] = target: T6, Mutant CD33-GFP M7 (R98D) on 293FT cells (UniProt P20138 18-364); assay: FACS, mutant CD33-GFP on 293FT cells
T6 construct: whole, on cells; not shown: GFP fused to CD33

[35] = target: T7, Mutant CD33-GFP M8 (K52A) on 293FT cells (UniProt P20138 18-364); assay: FACS, mutant CD33-GFP on 293FT cells
T7 construct: whole, on cells; not shown: GFP fused to CD33

[36] = target: Biotinylated CD33 protein (UniProt P20138); assay: Octet competition on biotinylated CD33; competitor 426

Chain of Biotinylated CD33 protein (P20138 18-259 limits assumed): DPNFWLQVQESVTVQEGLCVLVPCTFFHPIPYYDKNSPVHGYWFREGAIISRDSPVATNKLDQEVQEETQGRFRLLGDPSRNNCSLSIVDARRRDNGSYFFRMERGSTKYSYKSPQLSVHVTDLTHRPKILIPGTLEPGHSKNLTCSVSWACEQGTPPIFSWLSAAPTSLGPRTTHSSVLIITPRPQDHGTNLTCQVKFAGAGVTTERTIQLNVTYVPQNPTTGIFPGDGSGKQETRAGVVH
T5 sequence (P20138 18-364 F43N): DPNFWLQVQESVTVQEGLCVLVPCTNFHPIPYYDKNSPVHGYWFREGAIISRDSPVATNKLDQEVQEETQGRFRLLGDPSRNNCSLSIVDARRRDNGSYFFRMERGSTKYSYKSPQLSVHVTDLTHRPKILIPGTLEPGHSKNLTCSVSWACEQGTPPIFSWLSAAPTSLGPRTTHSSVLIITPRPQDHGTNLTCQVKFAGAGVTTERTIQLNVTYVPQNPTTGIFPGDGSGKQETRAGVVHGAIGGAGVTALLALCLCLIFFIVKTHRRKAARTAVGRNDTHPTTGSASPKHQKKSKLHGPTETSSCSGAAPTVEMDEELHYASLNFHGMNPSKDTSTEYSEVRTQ
Chain of Mutant CD33-GFP M9 (Y49, 50A) on 293FT cells (P20138 other isoform, or with tags, fused parts or gaps mutant): as the sequence (P20138 18-364 F43N) above, with N26F, Y32A, Y33A counted along it
T4 sequence (P20138 18-364): as the sequence (P20138 18-364 F43N) above, with N26F counted along it
Chain of CD33-GFP fusion protein, wild type (WT), on 293FT cells (P20138 18-364): as the sequence (P20138 18-364 F43N) above, with N26F counted along it
T7 sequence (P20138 18-364 K52A): as the sequence (P20138 18-364 F43N) above, with N26F, K35A counted along it
Chain of Mutant CD33-GFP N20D on 293FT cells (P20138 18-364 N20D): as the sequence (P20138 18-364 F43N) above, with N3D, N26F counted along it
Chain of Mutant CD33-GFP JS23 (L23N) on 293FT cells (P20138 18-364 L23N): as the sequence (P20138 18-364 F43N) above, with L6N, N26F counted along it
Chain of Mutant CD33-GFP M17 (F21Y) on 293FT cells (P20138 18-364 F21Y): as the sequence (P20138 18-364 F43N) above, with F4Y, N26F counted along it
Chain of Mutant CD33-GFP M10 (Y127A) on 293FT cells (P20138 18-364 Y127A): as the sequence (P20138 18-364 F43N) above, with N26F, Y110A counted along it
T1 sequence (P20138 18-364 W22A): as the sequence (P20138 18-364 F43N) above, with W5A, N26F counted along it
T6 sequence (P20138 18-364 R98D): as the sequence (P20138 18-364 F43N) above, with N26F, R81D counted along it
Chain of Mutant CD33-GFP M15 (Q171A) on 293FT cells (P20138 18-364 Q171A): as the sequence (P20138 18-364 F43N) above, with N26F, Q154A counted along it
Chain of Mutant CD33-GFP M13 (R91E) on 293FT cells (P20138 18-364 R91E): as the sequence (P20138 18-364 F43N) above, with N26F, R74E counted along it
Chain of Mutant CD33-GFP M12 (G88S) on 293FT cells (P20138 18-364 G88S): as the sequence (P20138 18-364 F43N) above, with N26F, G71S counted along it
T2 sequence (P20138 18-364 N99A): as the sequence (P20138 18-364 F43N) above, with N26F, N82A counted along it
Chain of Mutant CD33-GFP JS25 (V25M) on 293FT cells (P20138 18-364 V25M): as the sequence (P20138 18-364 F43N) above, with V8M, N26F counted along it
Chain of Mutant CD33-GFP M4 (R122D) on 293FT cells (P20138 18-364 R122D): as the sequence (P20138 18-364 F43N) above, with N26F, R105D counted along it
Chain of Mutant CD33-GFP M5 (AEAD), quadruple mutant, on 293FT cells (P20138 other isoform, or with tags, fused parts or gaps mutant): as the sequence (P20138 18-364 F43N) above, with W5A, N26F, H28E, N82A, R105D counted along it
Chain of Mutant CD33-GFP JS28 (S28L) on 293FT cells (P20138 18-364 S28L): as the sequence (P20138 18-364 F43N) above, with S11L, N26F counted along it
Chain of Mutant CD33-GFP M14 (E170R) on 293FT cells (P20138 18-364 E170R): as the sequence (P20138 18-364 F43N) above, with N26F, E153R counted along it
T3 sequence (P20138 18-364 H45E): as the sequence (P20138 18-364 F43N) above, with N26F, H28E counted along it
Chain of Mutant CD33-GFP JS24 (Q24E) on 293FT cells (P20138 18-364 Q24E): as the sequence (P20138 18-364 F43N) above, with Q7E, N26F counted along it
Chain of Mutant CD33-GFP M11 (L78T) on 293FT cells (P20138 18-364 L78T): as the sequence (P20138 18-364 F43N) above, with N26F, L61T counted along it

Binder | Octet signal [1] | Octet signal [2] | Octet signal [3] | FACS binding data [4] | FACS binding data [5] | FACS binding data [6] | Octet signal [7] | Octet signal [8] | Octet signal [10] | binding result (CD33 on MOLM-13 cells) | Octet signal [11] | Octet signal [12] | FACS binding data [13] | FACS binding data [14] | FACS binding data [15] | FACS binding data [16] | FACS binding data [17] | FACS binding data [18] | FACS binding data [19] | FACS binding data [20] | other results
B1 | 0.743 | 0.538 | 0.191 | 99.5 | 99.5 | 97.7 | 0.53 | 0.183 | 0.304 | binds | 0.257 | 0.0225 | 99.3 | 95.9 | 99 | 99.2 | 96.1 | 99.2 | 1.2 | 99.1 | Octet signal [9]: 0.0441; FACS binding data [21]: 77.8; FACS binding data [22]: 99.2; FACS binding data [23]: 99.3; FACS binding data [24]: 99.8; FACS binding data [25]: 99.7; FACS binding data [26]: 99.7; FACS binding data [27]: 1.25; FACS binding data [28]: 99.1; FACS binding data [29]: 99.4; FACS binding data [30]: 99.3; FACS binding data [31]: 99.2; Octet signal [32]: 0.259; FACS binding data [33]: 99.2; FACS binding data [34]: 99.1; FACS binding data [35]: 96.8
B2 | 0.648 | 0.733 | 0.266 | 80.1 | 3.43 | 97.3 | 0.356 | 0.154 | 0.086 | binds | 0.37 | 0.163 | 99.1 | 98.6 | 98.5 | 98.8 | 83.7 | 97.8 | 0.07 | 98.3 | Octet signal [36]: 0.239; FACS binding data [21]: 65.9; FACS binding data [22]: 98.8; FACS binding data [23]: 98.7; FACS binding data [24]: 99.5; FACS binding data [25]: 99.6; FACS binding data [26]: 99.6; FACS binding data [27]: 0.23; FACS binding data [28]: 99; FACS binding data [29]: 99.4; FACS binding data [30]: 70.2; FACS binding data [31]: 98.6; Octet signal [32]: 0.444; FACS binding data [33]: 98.6; FACS binding data [34]: 97.2; FACS binding data [35]: 95.4

From patent US20230365675A1 (published 2023)
